The results in this text go back to patent US20240052042A1 (Novartis, published 2024).

The target of test [1] is W74R hNPR1 mutant in the presence of ANP (human) (UniProt P01160). Description: ELISA, IgG titrated on coated antigen with ANP (250 fold molar excess), fluorescence [Cont.]. (In general: ELISA stands for enzyme-linked immunosorbent assay.)
In a further test the target is T1, hNPR1-ANP complex (human, UniProt P01160 124-151, limits assumed).
T1 construct: hNPR1 antigen in the presence of ANP; also called hNPR1 + 100 nM ANP
T1 sequence: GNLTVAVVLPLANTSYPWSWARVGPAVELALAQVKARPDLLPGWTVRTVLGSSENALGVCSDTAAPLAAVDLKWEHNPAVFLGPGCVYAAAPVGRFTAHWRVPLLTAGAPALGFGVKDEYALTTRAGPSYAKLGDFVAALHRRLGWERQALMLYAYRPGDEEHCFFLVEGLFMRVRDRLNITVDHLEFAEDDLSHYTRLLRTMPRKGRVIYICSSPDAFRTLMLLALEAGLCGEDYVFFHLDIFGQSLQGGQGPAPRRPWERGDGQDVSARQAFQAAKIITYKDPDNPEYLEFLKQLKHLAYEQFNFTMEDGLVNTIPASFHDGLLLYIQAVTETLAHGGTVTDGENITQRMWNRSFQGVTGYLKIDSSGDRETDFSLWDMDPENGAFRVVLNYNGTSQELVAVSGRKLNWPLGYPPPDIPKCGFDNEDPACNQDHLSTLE
T1 sequence (peptide): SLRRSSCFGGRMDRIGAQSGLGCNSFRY
Described as above.

For test [2], the target named is T2, human Natriuretic Peptide Receptor 1 (hNPR1) (human, UniProt P16066 33-473, limits assumed).
T2 construct: pannings used NPR1-hFc; also called NPR1-hFc
T2 sequence: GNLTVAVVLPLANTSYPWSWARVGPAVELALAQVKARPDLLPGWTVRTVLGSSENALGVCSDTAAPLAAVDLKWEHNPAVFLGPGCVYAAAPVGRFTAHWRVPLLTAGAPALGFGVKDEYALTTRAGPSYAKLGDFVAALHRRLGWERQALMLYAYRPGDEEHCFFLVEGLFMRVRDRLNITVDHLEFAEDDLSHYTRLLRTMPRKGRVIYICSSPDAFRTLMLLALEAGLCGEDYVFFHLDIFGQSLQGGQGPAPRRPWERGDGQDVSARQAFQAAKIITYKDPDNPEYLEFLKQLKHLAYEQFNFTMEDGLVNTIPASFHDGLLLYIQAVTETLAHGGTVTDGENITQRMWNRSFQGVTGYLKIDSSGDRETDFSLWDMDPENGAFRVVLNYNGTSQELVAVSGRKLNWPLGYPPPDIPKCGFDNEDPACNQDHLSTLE
Description: FRET ANP competition assay: IgG titrated on NPR1, Eu-labeled donor, Cy5-labeled ANP as the competed ligand [Cont.]. The method, then:
The same 31 IgGs were tested for ANP competition using a Fluorescence Resonance Energy Transfer (FRET)-based assay in which the NPR1-specific antibodies competed with ANP for binding to NPR1. In this FRET based assay (see FIG. 3), Eu-labeled Streptavidin (for measurement of IgGs) or Eu-labeled anti-hFc antibody (for measurement of FabCys) was used as an energy donor, while Cy5-labeled ANP was used as an acceptor (for all measurements). The resulting fluorescent signal was decreased by ANP-competitive antibodies. The assay was performed as follows: antibodies were mixed with NPR1 and incubated for 5 minutes at room temperature. After addition of the Eu-labeled donor and incubation for 30 minutes at room temperature, the Cy5-ANP solution was added. After a further 60-minute incubation, readout was performed using a TECAN Infinite M1000 Pro using an excitation wavelength of 317 nm and an emission wavelength of 665 nm. Percentage of ANP competition was calculated according to the following formulae: […]
All 92 FabCys and 24 IgGs were tested for binding to relevant antigens via ELISA and relevant cell lines by flow cytometry. […] Eight functional candidates were identified and analyzed for specificity in the Protein Panel Profiling assay (3P assay) in IgG format. For comparison, one of the functional candidates from the initial campaign (WW03) was analyzed. […]

The target of the next test is T3, rat NPR1 (rNPR1) (rat, UniProt P18910 29-469, limits assumed).
T3 construct: Soluble antigen
T3 sequence: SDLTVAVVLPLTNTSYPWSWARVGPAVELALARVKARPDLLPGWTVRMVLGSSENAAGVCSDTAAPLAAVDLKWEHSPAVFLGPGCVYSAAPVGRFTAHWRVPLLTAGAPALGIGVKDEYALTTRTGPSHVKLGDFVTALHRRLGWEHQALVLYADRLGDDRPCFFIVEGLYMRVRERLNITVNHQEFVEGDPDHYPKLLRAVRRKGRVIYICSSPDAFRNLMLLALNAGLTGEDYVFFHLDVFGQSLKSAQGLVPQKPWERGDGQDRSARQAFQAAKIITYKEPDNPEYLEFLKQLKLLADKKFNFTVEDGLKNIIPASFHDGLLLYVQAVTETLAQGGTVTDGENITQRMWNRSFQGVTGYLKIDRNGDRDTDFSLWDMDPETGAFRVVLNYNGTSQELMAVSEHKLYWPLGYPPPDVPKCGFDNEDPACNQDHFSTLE
The test can be described thus: ELISA, IgG titrated on coated antigen, fluorescence [Cont.].

In test [3] the target is T4, human NPR3 (counter target) (human, UniProt P17342 27-481, limits assumed).
T4 construct: Pannings used hNPR3-hFc; also called hNPR3; hNPR3-hFc
T4 sequence (looked up): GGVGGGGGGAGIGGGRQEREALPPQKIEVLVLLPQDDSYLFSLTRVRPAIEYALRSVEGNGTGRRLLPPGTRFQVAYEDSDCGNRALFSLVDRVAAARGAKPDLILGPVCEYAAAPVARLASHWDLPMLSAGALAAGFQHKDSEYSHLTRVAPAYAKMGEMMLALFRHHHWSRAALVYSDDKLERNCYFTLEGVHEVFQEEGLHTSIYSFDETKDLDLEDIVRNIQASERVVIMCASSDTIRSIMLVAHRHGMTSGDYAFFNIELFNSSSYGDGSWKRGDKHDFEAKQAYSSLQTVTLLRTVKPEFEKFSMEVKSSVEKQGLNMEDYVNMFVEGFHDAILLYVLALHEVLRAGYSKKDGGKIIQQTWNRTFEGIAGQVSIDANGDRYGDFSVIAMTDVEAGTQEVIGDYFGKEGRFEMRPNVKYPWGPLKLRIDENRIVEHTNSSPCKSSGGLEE
Described as above.

The target of test [4] is T5, human NPR3 in the presence of ANP (human, UniProt P17342 27-481; P01160 124-151, limits assumed).
T5 construct: also called hNPR3 + 100 nM ANP
T5 sequence (looked up): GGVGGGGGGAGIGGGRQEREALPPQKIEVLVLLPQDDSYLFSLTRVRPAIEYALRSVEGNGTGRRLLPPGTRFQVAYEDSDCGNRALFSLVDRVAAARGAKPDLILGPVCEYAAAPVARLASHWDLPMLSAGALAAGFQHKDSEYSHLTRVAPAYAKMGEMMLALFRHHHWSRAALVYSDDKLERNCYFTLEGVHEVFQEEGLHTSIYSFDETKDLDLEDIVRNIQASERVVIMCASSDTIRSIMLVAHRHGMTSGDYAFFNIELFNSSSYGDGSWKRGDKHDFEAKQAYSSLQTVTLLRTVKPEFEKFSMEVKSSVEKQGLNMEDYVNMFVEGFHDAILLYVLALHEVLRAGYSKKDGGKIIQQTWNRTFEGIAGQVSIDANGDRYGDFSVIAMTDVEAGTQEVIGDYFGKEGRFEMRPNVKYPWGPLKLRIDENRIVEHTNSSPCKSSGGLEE
T5 sequence (peptide, looked up): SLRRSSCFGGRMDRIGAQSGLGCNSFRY
Description: ELISA, IgG titrated on coated antigen with ANP (250 fold molar excess), fluorescence [Cont.].

B1: YY06 (IgG format) (antibody, V domains shown)
VH: EVQLLESGGGLVQPGGSLRLSCAASGFTFSSYAISWVRQAPGKGLEWVSAISGSGGSTYYAESVKGRFTISRDNSKNTLYLQMNSLRAEDTAVYYCARPYLGDRRSYGFDHWGQGTLVTVSS
VL: QSALTQPASVSGSPGQSITISCTGTSSDVGSYNLVSWYQQHPGKAPKLMIYEGSKRPSGVSNRFSGSKSGNTASLTISGLQAEDEADYYCSSYGFHIVVVVFGGGTKLTVLG
notes: also called YY06_LALA
The EC50 (read off the curve) is the concentration at which the effect is half-maximal. Take B1: the EC50 (read off the curve) in test [1] is 20 nM; with hNPR1-ANP complex, about 7 nM. Also, in test [2], the “IC50 (read off the curve)” value is about 4 nM.

B2: YY07 (IgG format) (antibody, V domains shown)
VH: EVQLVQSGAEVKKPGESLKISCKGSGYSFTSYWISWVRQMPGKGLEWMGIIYPGTSYTRYSPSFQGQVTISADKSISTAYLQWSSLKASDTAMYYCARGSLPGLLGFDHWGQGTLVTVSS
VL: QSVLTQPPSVSGAPGQRVTISCTGSSSNIGAGYDVHWYQQLPGTAPKLLIYGNSNRPNGVPDRFSGSKSGTSASLAITGLQAEDEADYYCQSYDSPTSSSVFGGGTKLTVLG
notes: also called YY07_LALA
Regarding B2, the binding result (with rat NPR1 (rNPR1); in test [3]; in test [4]) was “no binding (tested: 1000 nM)” throughout.
